From paper PMC6269442, “High resolution X-ray and NMR structural study of human T-cell immunoglobulin and mucin domain containing protein-3” (Scientific Reports, 2018) come the findings set out here.

Broadly, the EC50 is the concentration needed to bring the measured effect to its halfway point. A low value points to a more potent agent.

This test deals with T1, tagless human TIM-3 IgV domain (human, UniProt Q8TDQ0 24-130).
T1 construct: N-terminal methionine added before Val24; T-cell immunoglobulin and mucin domain containing protein-3 (TIM-3, HAVCR2), human, IgV domain, Val24 thru Lys130; the same tagless protein was used for crystallization and ELISA; also called tagless hTIM-3 IgV domain; hTIM-3 IgV domain
Description: ELISA; tagless hTIM-3 IgV (50 μl of 250 nM) coated on the plate; GST tagged hCEACAM1 IgV (0–15 μM) or GST control in Dulbeccos PBS; detected with goat polyclonal anti-GST-HRP. To be noted: both partners purified.

T1 sequence (Q8TDQ0 other isoform, or with tags, fused parts or gaps): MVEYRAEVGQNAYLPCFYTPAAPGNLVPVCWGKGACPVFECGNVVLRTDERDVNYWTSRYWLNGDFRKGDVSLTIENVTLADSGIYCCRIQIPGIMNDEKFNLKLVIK

B1: glutathione-S-transferase (GST) tagged hCEACAM1 IgV-domain protein (domain or fragment, human, UniProt P13688 35-142, looked up)
chain: QLTTESMPFNVAEGKEVLLLVHNLPQQLFGYSWYKGERVDGNRQIVGYAIGTQQATPGPANSGRETIYPNASLLIQNVTQNDTGFYTLQVIKSDLVNEEATGQFHVYP
notes: carcinoembryonic antigen cell adhesion molecule 1 (CEACAM1), human, IgV (N-terminal) domain; Detected by an anti-GST-HRP antibody; also called GST-hCEACAM1 IgV fusion protein
Consider B1, for which it took 3.13 µM to reach a half-maximal effect (EC50).
